Data on 1 molecule can be found in patent publication US20220175781A1, “CD40L COMPOSITIONS AND METHODS FOR TUNABLE REGULATION” (Obsidian Therapeutics, Inc., priority 2019, published 2022).

Holding throughout (assay type): cell-based
One test has as its system T cells. Put plainly: Dose response of TMP, Bazedoxifene or Raloxifene, % CD40L positive T cells. The settings on record: T cells. On the procedure:
T cells were transduced with OT-001662 or OT-001666. On day 4, cells were treated with increasing doses of TMP for T cells expressing OT-001662. Cells expressing OT-001666 were treated either with increasing concentrations of Bazedoxifene or Raloxifene. The data are shown in Table 30 as the percentage of CD40L positive T cells.

The next test concerns CD8 positive T cells. Put plainly: CD40L MFI by FACS in transduced CD8 positive T cells. On the procedure: Regulation of ecDHFR (R12Y, Y100I) DRD based construct OT-001662 and ER (N413D) DRD based construct OT-001666 were tested in CD8 positive T cells. For OT-001662, expressing cells, ligand was added 6 days after viral transduction at a dose of 50 μM TMP. OT-001666 expressing cells were treated with 0.5 μM Bazedoxifene or vehicle control, 5 days after transduction. Approximately 15-30k cells were analyzed per sample by FACS. All samples were compared to empty vector control as well as the constitutively expressed construct, OT-001661. Table 11 provides the mean fluorescence intensities (MFIs) obtained with each sample.
Background: A flow cytometer gives signals particle by particle.

A further test has as its system Jurkat cells. Put plainly: Surface expression of CD40L by FACS in lentivirally transduced Jurkat cells. The settings on record: FACS. On the procedure:
50,000 Jurkat cells were transduced with lentiviruses corresponding to the constructs. OT-001661, OT-001685, OT-001662, or OT-001666 and cultured for 48h. Cells were split and incubated with ligands for 24h before analysis by flow cytometry.
Jurkat cells were treated with one of the following: 1 μM Shield-1, 50 μM TMP, 1 μM Bazedoxifene (BZD) or vehicle control. Surface expression of CD40L was measured using FACS and the results are show in Table 9. All values were normalized to mode.

The subject of the next test is HEK-Blue™ CD40 cells. Description: HEK-Blue CD40 SEAP reporter co-culture with transduced Jurkat cells. The settings on record: ligand 24 h (1 μM Shield-1, 50 μM TMP or 1 μM Bazedoxifene), recombinant soluble CD40L as standard. On the procedure: Jurkat cells transduced with OT-001661, OT-001685, OT-001662, OT-001666, or OT-001667 were co-cultured with HEK-Blue™ CD40 cells (Invivogen, San Diego, Calif.). Cocultures were treated with ligands (1 μM Shield-1, 50 μM TMP, 1 μM Bazedoxifene (BZD) or vehicle control) for 24 hours and the secreted embryonic alkaline phosphatase (SEAP) reporter levels were measured in the media. All vehicle treated samples had background SEAP activity. Recombinant soluble CD40L was used as the standard in the experiments.

Another test has as its system CD4+ T cells. Put plainly: Ligand dose response, % CD40L positive cells, CD4+ T cells. On the procedure:
Ligand dose response curve experiments were performed with increasing doses of ligand using OT-001662 and OT-001666 constructs in both CD4+ as well as CD8+ T cells.
The experiments were conducted using three different volumes of virus for transduction i.e. 0.5, 2 and 10 μL.

Setting [1] is: ligand 24 h (1 μM Shield-1 OT-001685, 50 μM TMP OT-001662, 1 μM Bazedoxifene OT-001666).
[2] abbreviates: vehicle 24 h (Ethanol 0.2% OT-001685, DMSO 0.5% OT-001662, DMSO 0.01% OT-001666).

B1: OT-001666 (Met; ER (305-549 of WT, L384M, N413D, M421G, G521R, Y537S); Histidine; CD40L; stop) (ligand)
chain: MSLALSLTADQMVSALLDAEPPILYSEYDPTRPFSEASMMGLLTNLADRELVHMINWAKRVPGFVDLTLHDQVHLLECAWMEILMIGLVWRSMEHPGKLLFAPNLLLDRDQGKCVEGGVEIFDMLLATSSRFRMMNLQGEEFVCLKSIILLNSGVYTFLSSTLKSLEEKDHIHRVLDKITDTLIHLMAKAGLTLQQQHQRLAQLLLILSHIRHMSNKRMEHLYSMKCKNVVPLSDLLLEMLDAHRLHMIETYNQTSPRSAATGLPISMKIFMYLLTVFLITQMIGSALFAVYLHRRLDKIEDERNLHEDFVFMKTIQRCNTGERSLSLLNCEEIKSQFEGFVKDIMLNKEETKKENSFEMQKGDQNPQIAAHVISEASSKTTSVLQWAEKGYYTMSNNLVTLENGKQLTVKRQGLYYIYAQVTFCSNREASSQAPFIASLCLKSPGRFERILLRAANTHSSAKPCGQQSIHLGGVFELQPGASVFVNVTDPSQVSHGTGFTSFGLLKL
Turning to B1, the “% CD40L positive T cells, dose response” value in the test with T cells (increasing concentrations of Bazedoxifene) is “dose dependent increase”. The Raloxifene dependent expression result in the test on T cells (increasing concentrations of Raloxifene) was “observed only at the 1 μM dose”. Also, the “CD40L MFI” value is given as 33.1 with CD8 positive T cells (+Ligand (50 μM TMP OT-001662; 0.5 μM Bazedoxifene OT-001666)) and 35.4 in the test with CD8 positive T cells (Vehicle). Further, the “CD40L positive percent of live cells” value was 38.4% with Jurkat cells (setting [1]) and 0.024% in the test on Jurkat cells (setting [2]). Moreover, the “Geometric Mean of CD40L fluorescent intensity” value in the test on Jurkat cells (setting [1]) amounted to 421; with Jurkat cells (setting [2]), 21.5. Also, in the test with HEK-Blue™ CD40 cells, the “Soluble CD40L” value amounted to 1824.7 pg/mL. The “% CD40L positive cells” value with CD4+ T cells (2 μL virus, BZD 0.05 nM) is listed as 8.57%; in the test with CD4+ T cells (2 μL virus, BZD 0.5 nM), 9.25%; with CD4+ T cells (2 μL virus, BZD 5 nM) it was 11.1%; with CD4+ T cells (2 μL virus, BZD 50 nM), 36%; in the test on CD4+ T cells (2 μL virus, BZD 500 nM) it was 71.8%; in the test on CD4+ T cells (10 μL virus, BZD 0.05 nM) it was 4.16%. Besides, the “% CD40L positive cells” value with CD4+ T cells (10 μL virus, BZD 0.5 nM) is given as 4.86%; with CD4+ T cells (10 μL virus, BZD 5 nM), 6.42%; in the test with CD4+ T cells (10 μL virus, BZD 50 nM), 34%; in the test on CD4+ T cells (10 μL virus, BZD 500 nM), 76.5%.
